Assay results taken from patent publication US20140356345.

T1: 33-mer gliadin peptide
T1 sequence: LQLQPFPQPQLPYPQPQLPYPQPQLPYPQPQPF

T2: 33-mer gliadin peptide
T2 chain: T1 sequence

B1: endopep-140 (protein)
chain: MPDLPTQRRSPRRSRRPAVLARLAGLRVGALVLALAVTTLTLISMPSANAAPAKPVVPHAKASSPTAQGQHPTSRVCRTPGRANEMTCLAMVRDDVIGPKGVQANDAPAGFGPADLLNAYNLPSAGSTETVAIVDAFDNPNAEADLGVYRQQYGLPACTTANGCFKKIDQRGGTSYPPPDAGWAGEIALDIDMVSAICPTCKILLVEADDNYMDNLGTAVNQAVSQGAKFVSNSYGGSEGSDEGQADDAYFHHDGVAITASSGDSGYGASYPAASPYVTSVGGTSLAKDTSSSRGWTESTWNGAGSGCSAYETKPSFQKDTGCARRTIADVSAVADPNTGVAVYNGGWHVYGGTSVSAPIIASVYALGGAPAAGSAPNSFPYDHPADLNDVTSGSNGSCSPAYLCTAGTGYDGPTGLGTPNGIAAFRSGPHAVVTGTVTDGTAPLASAQVKAGDVTATTDGQGHYTLSVPPGTYDVSASKFGYTGKTISGVQVADGQTVTEDFALTAKARVDVSGLVRDGSGHGWPVYATVRVKDQPTAVAYTDPKTGRYTLSLPTDDTYTLQVDPLYPGYTQDSHDVTVTSADVVHDVNVAVDQTTCSAPGYSYHYAGATQPFDGTTAPAGWTVDDKVGNGQTWVFNDPGSRGNKTGGTGGFAVIDSDHYGSGNTQDSTLFSPVTDFSARTHPILSFRSDWYGYTGQAGDLDLSVDGGTTWTNLKHYTASERGPRTETMDLSAAAGKSAVQVRFHFTGKFGYYWQVDDVFLGDRTCDPTSGGLVVGQVTDANTGAGVAGATVTSVDRPAEHATSAATPDDPNLGDGLFWMFSSVTGSHKFTATAGNYDSHDVTVNVAANWATAADIALSAPRLTVTPGAISKTVGWQKAATAALTLKNTGTSPVTAKIGEQPGGSTTATAGAPLQRVKGDFASGRLQQGKASGAKAGVTPYAPPWTAIADYASPIMDNGAVALNGKIYSVAGVDGANVLNKAYAYDPGTQAWTAIAPLATGREAPQATTTGGKLYVTGGWGSTGAAVAKTEIFDPSSGAWSAGADNPKPYAGSGAAVLDGKIYVVGGCLATCGTKDVQVYDPAANSWSSGPAYPENTAWLGCAGIDGKLYCAGGSAAASTKHGYVLDPASGTWSPIADLPIDLWAMGYSAANGKLIVSGGVTNGASTLTNQGFAYDPSANSWTALPNSNNALYRGASACGFYKIGGSLGQFNAVKSGEVLPGYDQCASTADVPWLSEDKTEVTIQPGQSVKVNVTLDANVPAITQPGTYTAQLTVGAKTPYAIPPVAVTMTVNPPGTWGKITGTLTGAGCTGSPAPLTGATLQIDSWAASYTLKTDKNGQYALWLDVRNNPLTLIAAKDGWAPQTRNVKITKLTSTTADFTLKPDHTCS
B2: endopep-40 (protein)
chain: MSRRVTGTILGGLILAMVPFLSTAANAAPQAAPASVSHPFHHSCATVKPGRASCNALVRSDIAQSAATLAHQAAAPSGLSPANLQSAYKLPSSTAGSGQTVAIVDAYDAPTAEADLNVYRSQFGLGACTTANGCFKKVDQNGGTSYPRKDGGWAQEISLDLDMVSAVCPNCKIVLVEAKTNSFANLGTAENTAASLANVISNSYGGSDASDASYGSYYNHPGKAITVSSGDAGYGVEYPASSHYVTAVGGTSLRTASTSRGWSETAWSGAGSGCSAYNTALSGQSGLTGCSRRAVADVSAVADPATGVAVYDSTAYQGQSGWMVFGGTSVAAPIIGGVYGLAANAASIDNNYPYAHTSSLFDVTSGSNGTCTTTKWCTAGTGWDGPTGLGTPNGTGAF

Key:
[1] = system: T1, 33-mer gliadin peptide
[2] = target: T2, 33-mer gliadin peptide
[3] = target: gliadin (Sigma G3375)

Row | Molecule | residual intact 33-mer (1-33) by HPLC-MS, Control T2h (pepsin alone, 1 mg/ml), pH 3 [1] [% residual] | 33-mer disappearance by HPLC-MS, 8 uU enzyme, 2 h, pH 3 [2] | residual intact 33-mer (1-33) by HPLC-MS, T0 [2] [% residual] | residual intact 33-mer (1-33) by HPLC-MS, T30 + pepsin (1 mg/ml), 4 uU enzyme, pH 3 [2] [% residual] | residual intact 33-mer (1-33) by HPLC-MS, T30, 4 uU enzyme, pH 3 [2] [% residual] | residual intact 33-mer (1-33) by HPLC-MS, T2h + pepsin (1 mg/ml), 4 uU enzyme, pH 3 [2] [% residual] | residual intact 33-mer (1-33) by HPLC-MS, T2h, 4 uU enzyme, pH 3 [2] [% residual] | proteolysis of gliadin, SDS-PAGE, 5 uU enzyme, pH 3, 37 C [3] | 33-mer disappearance by HPLC-MS, 9 uU enzyme, 2 h, pH 3 [2] | residual intact 33-mer (1-33) by HPLC-MS, T30 + pepsin (1 mg/ml), 2 uU enzyme, pH 3 [2] [% residual] | residual intact 33-mer (1-33) by HPLC-MS, T30, 2 uU enzyme, pH 3 [2] [% residual] | residual intact 33-mer (1-33) by HPLC-MS, T2h + pepsin (1 mg/ml), 2 uU enzyme, pH 3 [2] [% residual] | residual intact 33-mer (1-33) by HPLC-MS, T2h, 2 uU enzyme, pH 3 [2] [% residual]
1 | pepsin | 95 |  |  |  |  |  |  |  |  |  |  |  | 
2 | B1 |  | complete 33-mer disappearance after 2 h at pH 3 (not shown) | 100 | 70 | 50 | 45 | 20 | cleaved ... into small peptides to almost complete digestion in 2 hours |  |  |  |  | 
3 | B2 |  |  | 100 |  |  |  |  | cleaved ... into small peptides to almost complete digestion in 2 hours | complete 33-mer disappearance after 2 h at pH 3 (not shown) | 70 | 50 | 30 | 20
